Patent US20110300100A1 (CSL, published 2011)
Numbering of substitutions follows the chain as printed. Numbers in names are those of the source.

What was measured:
mIL-11Rα-Fc [1] = molecular target: T1, mIL-11Rα-Fc (murine, UniProt Q64385 24-372); assay: IL-11Rα binding ELISA
T1 construct: Coated on the ELISA plates; not shown: Fc part of the bought fusion protein
T1 sequence (looked up): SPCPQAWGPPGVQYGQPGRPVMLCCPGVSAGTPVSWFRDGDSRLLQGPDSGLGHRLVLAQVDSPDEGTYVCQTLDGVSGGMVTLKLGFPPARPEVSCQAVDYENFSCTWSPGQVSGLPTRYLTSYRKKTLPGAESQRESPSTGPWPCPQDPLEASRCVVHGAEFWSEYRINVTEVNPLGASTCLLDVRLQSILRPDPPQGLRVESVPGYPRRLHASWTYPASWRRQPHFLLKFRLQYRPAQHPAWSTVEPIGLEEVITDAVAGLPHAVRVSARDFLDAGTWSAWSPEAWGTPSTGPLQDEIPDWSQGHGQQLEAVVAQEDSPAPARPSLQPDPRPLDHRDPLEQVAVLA

[2] = molecular target: T2, wild-type murine IL-11Rα on stably transfected Ba/F3 cells (with co-receptor murine gp130) (murine, UniProt Q64385 24-432); assay: cell-based or functional assay
T2 sequence (looked up): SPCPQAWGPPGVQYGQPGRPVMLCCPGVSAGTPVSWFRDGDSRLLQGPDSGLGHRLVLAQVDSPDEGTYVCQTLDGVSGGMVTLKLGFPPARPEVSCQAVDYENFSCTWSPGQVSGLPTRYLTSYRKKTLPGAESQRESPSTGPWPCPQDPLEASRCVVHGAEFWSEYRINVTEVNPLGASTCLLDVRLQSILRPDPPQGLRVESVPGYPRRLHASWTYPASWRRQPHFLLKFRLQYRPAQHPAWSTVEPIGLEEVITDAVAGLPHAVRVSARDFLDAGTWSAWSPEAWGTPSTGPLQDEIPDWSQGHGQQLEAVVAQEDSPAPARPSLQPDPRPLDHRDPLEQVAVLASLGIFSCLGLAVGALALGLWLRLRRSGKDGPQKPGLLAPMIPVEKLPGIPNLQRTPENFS

[3] = molecular target: T2, wild-type murine IL-11Rα on stably …; assay: cell-based or functional assay; remark: listed apart in the source
mIL-11Rα-Fc [4] = molecular target: T1, mIL-11Rα-Fc; assay: competition ELISA, soluble protein against phage displayed IL-11 variants on coated mIL-11Rα-Fc
Procedure: The affinity of the selected IL-11 mutants for IL-11Rα was determined in a competition ELISA experiment. […] After incubation for 2 hours at room temperature, the plates were washed and bound phage were then labeled with an anti-M13 polyclonal antibody conjugated to horseradish peroxidase. After the removal of excess antibody by washing with PBS containing 0.05% Tween 20, TMB substrate was added to each well and incubated for 10 minutes before the reaction was quenched by the addition of 2M phosphoric acid. Absorbance at 450 nm was then determined for each well by analysis on a microtitre plate reader.
Clear differences were observed between the affinities of the mIL-11-W147A and mutant proteins for binding to IL-11Rα-Fc.

B1: Δ1.21 (PEGylated and truncated modified form of clone 1.21, W147C, amino acids 10-178 of SEQ ID NO:12) (ligand)
chain: VSSDPRADLDSAVLLTRSLLADTRQLAAQMRDKFPADGDHSLDSLPTLPAIDYTLGSLQLPGVLTRLRVDLMSYLRHVQWLRRAGGPSLKTLEPELGALQARLERLLRRLQLLMSRLALPQAAPDQPVIPLGPPASACGSIRAAHAILGGLHLTLDWAVRGLLLLKTRL
modifications: 40 kDa mPEG2-maleimide on Cys147 (position corresponding to position 147 of SEQ ID NO:12)
notes: His-tag and first nine residues (which carried the optimized thrombin site, residues 6 and 7 to L and V) removed by thrombin; N-terminus Val10-Ser11-Ser12; also called PEGylated mutein; pegylated mouse IL-11 mutein Δ1.21
mIL-11Rα-Fc [1]
  fold reduction of binding affinity relative to non-PEGylated 1.21: ~5 fold
[2]
  fold reduction of the ability to antagonize IL-11-induced Ba/F3 cell proliferation, relative to non-PEGylated 1.21: ~10 fold

B2: IL-11 mutant 1B.382 (murine FMQIQ and W147A IL-11 mutein), N-terminal hexahistidine-tagged (ligand)
chain: PGPPAGSPRVSSDPRADLDSAVLLTRSLLADTRQLAAQMRDKFPADGDHSLDSLPTLFMQIQTLGSLQLPGVLTRLRVDLMSYLRHVQWLRRAGGPSLKTLEPELGALQARLERLLRRLQLLMSRLALPQAAPDQPVIPLGPPASAAGSIRAAHAILGGLHLTLDWAVRGLLLLKTRL
notes: Mutein of mature murine IL-11 with FMQIQ at 58-62 and W147A; also called clone 1B.382; not shown: N-terminal hexahistidine tag from the modified pET15b vector
[3]
  IC50 (nM), inhibition of IL-11-induced proliferation of IL-11Rα/gp130 Ba/F3 cells (MTT): 0.49 nM
mIL-11Rα-Fc [4]
  fold higher affinity relative to W147A IL-11: 20 fold

B3: mIL-11-W147A, N-terminal hexahistidine-tagged (ligand, not shown: small tags and cut ends)
chain: B2 chain with F58A, Q60S, I61A, Q62G
[3]
  IC50 (nM), inhibition of IL-11-induced proliferation of IL-11Rα/gp130 Ba/F3 cells (MTT): 14 nM

B4: IL-11 mutant 1.21 (murine PAIDY and W147A IL-11 mutein), N-terminal hexahistidine-tagged (ligand)
chain: B2 chain with F58P, M59A, Q60I, I61D, Q62Y
notes: Mutein of mature murine IL-11 with PAIDY at 58-62 and W147A; not shown: N-terminal hexahistidine tag from the modified pET15b vector
[3]
  IC50 (nM), inhibition of IL-11-induced proliferation of IL-11Rα/gp130 Ba/F3 cells (MTT): 0.54 nM
mIL-11Rα-Fc [4]
  fold higher affinity relative to W147A IL-11: 20 fold
